Experimental data published in patent publication US20210230254A1.

target: 2CC-core (HIV-1 YU2) (UniProt P35961); assay: SPR, 2CC-core on chip, IgG injected

12A12 (antibody), sequence (VH): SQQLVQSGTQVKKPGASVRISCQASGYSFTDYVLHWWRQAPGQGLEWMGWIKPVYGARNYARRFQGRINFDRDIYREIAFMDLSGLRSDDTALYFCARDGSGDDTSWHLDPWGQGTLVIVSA
12A12 (antibody), sequence (VL): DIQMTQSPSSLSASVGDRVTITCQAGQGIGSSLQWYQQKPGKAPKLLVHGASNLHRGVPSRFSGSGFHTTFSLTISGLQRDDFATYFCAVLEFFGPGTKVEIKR
NIH45-46 (antibody), sequence (VH): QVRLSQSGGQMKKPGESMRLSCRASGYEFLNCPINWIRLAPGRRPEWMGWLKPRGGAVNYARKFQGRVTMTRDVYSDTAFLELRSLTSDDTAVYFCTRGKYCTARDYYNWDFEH
NIH45-46 (antibody), sequence (VL): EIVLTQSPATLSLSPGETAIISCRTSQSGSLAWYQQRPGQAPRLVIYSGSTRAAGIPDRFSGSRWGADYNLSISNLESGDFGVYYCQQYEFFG
8ANC195 (antibody), sequence (V domain): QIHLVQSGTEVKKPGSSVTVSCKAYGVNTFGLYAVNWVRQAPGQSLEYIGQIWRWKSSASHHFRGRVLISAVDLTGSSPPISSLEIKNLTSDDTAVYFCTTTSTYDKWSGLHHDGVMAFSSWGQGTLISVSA
8ANC195 (antibody), sequence (VL): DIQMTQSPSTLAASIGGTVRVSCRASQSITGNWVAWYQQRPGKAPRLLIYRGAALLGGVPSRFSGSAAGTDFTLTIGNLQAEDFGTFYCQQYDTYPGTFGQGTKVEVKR
3BNC60 (antibody), sequence (VH): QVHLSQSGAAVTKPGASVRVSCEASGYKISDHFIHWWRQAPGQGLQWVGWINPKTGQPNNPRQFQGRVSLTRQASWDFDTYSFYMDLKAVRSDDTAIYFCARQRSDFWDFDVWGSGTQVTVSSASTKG
3BNC60 (antibody), sequence (VL): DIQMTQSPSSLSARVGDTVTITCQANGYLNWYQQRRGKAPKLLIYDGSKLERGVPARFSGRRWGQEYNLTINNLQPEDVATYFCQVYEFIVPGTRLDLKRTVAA
12A21 (antibody), sequence (VH): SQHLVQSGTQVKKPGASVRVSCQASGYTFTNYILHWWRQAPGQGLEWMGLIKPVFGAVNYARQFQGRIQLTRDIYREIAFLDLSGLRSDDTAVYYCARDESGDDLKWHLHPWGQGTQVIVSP
12A21 (antibody), sequence (VL): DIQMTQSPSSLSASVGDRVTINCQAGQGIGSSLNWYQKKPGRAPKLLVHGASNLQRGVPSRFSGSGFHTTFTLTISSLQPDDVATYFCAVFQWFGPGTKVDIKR
3BNC66 (antibody), sequence (V domain): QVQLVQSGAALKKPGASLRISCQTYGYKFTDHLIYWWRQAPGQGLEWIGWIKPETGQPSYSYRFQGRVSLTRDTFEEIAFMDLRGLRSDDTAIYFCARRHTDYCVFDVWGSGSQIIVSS
3BNC66 (antibody), sequence (VL): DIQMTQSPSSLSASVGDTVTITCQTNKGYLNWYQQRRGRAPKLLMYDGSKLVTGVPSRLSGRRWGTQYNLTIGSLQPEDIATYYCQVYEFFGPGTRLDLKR
3BNC156 (antibody), sequence (VH): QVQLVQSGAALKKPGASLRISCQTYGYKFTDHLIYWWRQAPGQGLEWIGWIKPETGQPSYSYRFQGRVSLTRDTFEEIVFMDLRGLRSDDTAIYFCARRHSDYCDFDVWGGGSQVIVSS
3BNC156 (antibody), sequence (VL): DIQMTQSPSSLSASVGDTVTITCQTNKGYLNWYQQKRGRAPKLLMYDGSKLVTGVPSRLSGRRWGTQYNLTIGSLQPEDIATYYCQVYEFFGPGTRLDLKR
3BNC117 (antibody), sequence (VH): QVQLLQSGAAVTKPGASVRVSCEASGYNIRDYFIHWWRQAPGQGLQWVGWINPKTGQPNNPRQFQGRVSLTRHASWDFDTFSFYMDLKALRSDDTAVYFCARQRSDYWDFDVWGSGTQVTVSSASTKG
3BNC117 (antibody), sequence (VL): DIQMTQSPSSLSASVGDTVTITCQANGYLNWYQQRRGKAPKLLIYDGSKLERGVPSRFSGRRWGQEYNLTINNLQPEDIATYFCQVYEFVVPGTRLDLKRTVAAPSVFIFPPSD
3BNC55 (antibody), sequence (V domain): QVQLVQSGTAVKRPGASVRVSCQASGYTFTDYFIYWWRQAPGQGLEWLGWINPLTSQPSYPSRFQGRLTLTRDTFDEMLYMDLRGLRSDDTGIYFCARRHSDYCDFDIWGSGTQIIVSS
3BNC55 (antibody), sequence (VL): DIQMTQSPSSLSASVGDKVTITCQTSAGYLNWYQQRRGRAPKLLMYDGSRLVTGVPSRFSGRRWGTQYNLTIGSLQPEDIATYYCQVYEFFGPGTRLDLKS

Substance | Kd [nM] | koff [s⁻¹] | kon [M⁻¹ s⁻¹]
1B2530 (antibody) | 5.9 | 0.000402 | 68300
1NC9 (antibody) | 4.61 | 0.000236 | 51100
3BNC55 (antibody) | 25.7 |  | 
3BNC60 (antibody) | 54.5 | 0.00164 | 30200
3BNC66 (antibody) | 33.6 | 0.00133 | 39600
3BNC117 (antibody) | 36.8 |  | 
3BNC156 (antibody) | 81.2 | 0.00153 | 18800
8ANC131 (antibody) | 66.1 | 0.00323 | 48800
8ANC134 (antibody) | 46.1 | 0.000957 | 20800
8ANC195 (antibody) | 54.7 | 0.00132 | 24100
12A12 (antibody) | 0.0269 | 1.7e-06 | 63300
12A21 (antibody) | 1.81 | 0.00033 | 182000
NIH45-46 (antibody) | 4.4 | 0.000494 | 112000

target: 2CC-core (HIV-1 YU2) (UniProt P35961); assay: not given

Substance | koff [s⁻¹] | kon [M⁻¹ s⁻¹]
3BNC55 (antibody) | 0.000815 | 31600
3BNC117 (antibody) | 0.00149 | 40500
